Source: patent US12319739 (F STAR DELTA, dated 2025)
Numbering of substitutions follows the chain as printed.

T1: cMSLN-His-Avi (cynomolgus, single biotin on the Avi tag in the biotinylated form)
T1 construct: Monomeric; also called cyno MSLN-His-Avi; cMSLN-Avi-His
T1 chain: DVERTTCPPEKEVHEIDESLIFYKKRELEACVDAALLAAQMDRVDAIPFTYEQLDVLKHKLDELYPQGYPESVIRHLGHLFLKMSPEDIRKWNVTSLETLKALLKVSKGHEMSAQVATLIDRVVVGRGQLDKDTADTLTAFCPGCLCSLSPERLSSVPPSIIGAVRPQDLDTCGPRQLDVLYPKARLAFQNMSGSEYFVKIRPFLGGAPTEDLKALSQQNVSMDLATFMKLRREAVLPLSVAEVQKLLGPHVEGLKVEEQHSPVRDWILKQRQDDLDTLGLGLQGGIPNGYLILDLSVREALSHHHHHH

B1: FS22-172-003-AA/FS28-256-027 (bispecific antibody, human IgG1, kappa, L234A L235A, V domains shown)
VH: EVQLLESGGGLVQPGGSLRLSCAASGFTFTHTYMSWVRQAPGKGLEWVSNISPTYSTTNYADSVKGRFTISRDNNKNTLYLQMNSLRAEDTAVYYCARYNAYHAALDYWGQGTLVTVSS
VL: EIVLTQSPGTLSLSPGERATLSCRASQSVSSSYLAWYQQKPGQAPRLLIYGASSRATGIPDRFSGSGSGTDFTLTISRLEPEDFAVYYCQQTVPYPYTFGQGTKVEIKR
notes: IgG1 mAb^2 with LALA
B2: FS28-256-274 (in CD137 mAb^2 format) (bispecific antibody, V domains shown)
VH: B1 VH with N50T
VL: B1 VL
notes: Position 55 is IMGT numbering
B3: FS22-172-003-AA/FS28-256-272 (bispecific antibody, human IgG1, kappa, L234A L235A, V domains shown)
VH: B1 VH with N50H
VL: B1 VL
notes: IgG1 mAb^2 with LALA
B4: FS22-172-003-AA/FS28-256-273 (bispecific antibody, human IgG1, kappa, L234A L235A, V domains shown)
VH: B1 VH with N50S
VL: B1 VL
notes: IgG1 mAb^2 with LALA

Columns and labels:
[1] = biological target: T2, hMSLN-His-Avi (human, UniProt Q13421 296-598, single biotin on the Avi tag in the biotinylated form); assay: ratio of SPR KDs
T2 construct: Monomeric; also called human MSLN-His-Avi; hMSLN-Avi-His
Protocol: (§1) 7.1 Binding of CD137/MSLN mAb2 to Human MSLN Under Avid Conditions—Antigen Capture Method Binding of all mAb^2 to MSLN immobilised on a BIAcore chip was tested to determine the binding affinity to human MSLN under avid conditions, where a high concentration of immobilised antigen is available to allow the antibody to bind avidly. […] The association time was 5 min and the dissociation time was 10 min. Running buffer was HBS-EP (GE Healthcare BR100188). Flow cells were regenerated by injecting Glycine-HCl pH1.5 at a flow rate of 30 μl/min for 30 seconds. Data were analysed by double referencing against a flow cell which was intentionally left blank (no antigen coating). The binding kinetics were fitted with a 1:1 Langmuir model to generate binding association (k_a) and dissociation (k_d) rates. Equilibrium binding constants (K_D) were calculated by dividing the dissociation rate by the association rate for each sample. Data analysis was performed with BiaEvaluation software version 3.2.
(§2) The association time was 5 min and the dissociation time was 5 min. Running buffer was HBS-EP (GE Healthcare BR100188). Flow cells were regenerated by injecting Glycine-HCl pH2.1 at a flow rate of 30 μl/min for 15 seconds. The data was analysed as described in Example 7.1.

[2] = biological target: T3, human CD137 on primary human CD8+ T cells (human, UniProt Q07011 24-255); assay: cell-based or functional assay
[3] = biological target: T3, human CD137 on primary human CD8+ T …; assay: cell-based or functional assay; remark: listed apart in the source
[4] = biological target: T4, endogenous cell surface human MSLN (human, UniProt Q13421 296-598); assay: flow cytometry, NCI-H226 cells
T4 construct: whole, on cells; The cell line is named under assay; also called cell-surface MSLN on NCI-H226, OVCAR-3 and AsPC-1 cells
Protocol: (§3) To confirm binding to cell surface MSLN, mAb² listed in Table 9 were analysed for binding to endogenous cell surface MSLN on the human lung cancer cell line NCI-H226. In addition, and because MSLN can be found in blood in a shed soluble form, there is a risk that this circulating MSLN might affect exposure and ultimately potency of our mAb². To confirm that presence of soluble MSLN has minimal impact, additional binding experiments to NCI-H226 cells were performed in the presence of 20 nM soluble MSLN which is 10-20 times the level of soluble MSLN found to be of diagnostic value for defining malignant mesothelioma and lung cancer patients as MSLN positive (Cui et al., 2014). Briefly, NCI-H226 cells (ATCC CRL-5826) were harvested from T175 cell culture flasks using Accutase (Gibco, A11105-01).
(§4) In both cases, cells were centrifuged at 1200 rpm for 3 min and resuspended in ice cold FACS buffer made up of DPBS (Life Technologies, 14190169) and 1% BSA (Sigma-Aldrich, A7906) at 2×10⁶ cells/ml and 50 μl per well was seeded in a 96-well V-bottom plate (Costar, 3894). All antibodies tested were diluted in FACS buffer in 120 μl at a concentration range of 0.01-200 nM (4-fold dilutions). The NCI-H226 cells were then centrifuged, supernatant removed and cells resuspended in 100 μl of each mAb dilution and incubated at 4° C. for 45 min. Cells were washed twice by centrifugation with 150 μl FACS buffer, resuspended in 100 μl containing goat anti-human IgG (γ-chain specific) F(ab')2 fragment-R-Phycoerythrin antibody (Sigma, P8047) diluted 1:1000 in FACS buffer and incubated at 4° C. for 45 min. The cells were washed once with 150 μl FACS buffer and then with 150 μl DPBS, resuspended in 150 μl DPBS containing DAPI (Biotium, 40043) at 1:10.000 and read on the BDCantoII or iQue (Intellicyt).

[5] = biological target: T4, endogenous cell surface human MSLN; assay: flow cytometry, NCI-H226 cells + 20 nM soluble MSLN
Protocol: as §3, §4

[6] = biological target: T2, hMSLN-His-Avi; assay: SPR, hMSLN-His-Avi immobilised ~100 RU, mAb2 injected
Protocol: as §1

[7] = biological target: T1, cMSLN-His-Avi; assay: SPR, mAb2 captured on Protein G, cMSLN-His-Avi in solution
Protocol: as §2

[8] = biological target: T2, hMSLN-His-Avi; assay: SPR, mAb2 captured on Protein G, hMSLN-His-Avi in solution
Protocol: as §2

[9] = biological target: T2, hMSLN-His-Avi; assay: ratio of SPR KDs; remark: listed apart in the source
[10] = biological target: T2, hMSLN-His-Avi; assay: SPR, hMSLN-His-Avi immobilised
[11] = biological target: T2, hMSLN-His-Avi; assay: SPR, hMSLN-His-Avi in solution
[12] = biological target: T3, human CD137 on primary human CD8+ T …; assay: cell-based or functional assay; remark: listed apart in the source

T3 sequence (Q07011 24-255): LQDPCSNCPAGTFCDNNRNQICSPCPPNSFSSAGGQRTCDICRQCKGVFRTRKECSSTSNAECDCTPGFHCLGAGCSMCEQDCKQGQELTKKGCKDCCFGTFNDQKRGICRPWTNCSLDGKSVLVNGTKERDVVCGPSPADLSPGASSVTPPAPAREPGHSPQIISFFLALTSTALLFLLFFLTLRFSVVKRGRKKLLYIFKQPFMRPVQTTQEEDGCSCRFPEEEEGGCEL
T4 sequence (Q13421 other isoform, or with tags, fused parts or gaps limits assumed): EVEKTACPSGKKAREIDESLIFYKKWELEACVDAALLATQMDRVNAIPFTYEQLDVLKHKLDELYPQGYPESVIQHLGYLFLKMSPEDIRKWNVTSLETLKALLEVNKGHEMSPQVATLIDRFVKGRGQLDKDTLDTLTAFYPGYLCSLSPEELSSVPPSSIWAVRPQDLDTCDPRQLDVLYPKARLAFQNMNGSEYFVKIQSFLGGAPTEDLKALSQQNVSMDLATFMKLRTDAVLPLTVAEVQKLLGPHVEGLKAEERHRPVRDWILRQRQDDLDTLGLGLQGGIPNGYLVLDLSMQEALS
T2 sequence (Q13421 other isoform, or with tags, fused parts or gaps): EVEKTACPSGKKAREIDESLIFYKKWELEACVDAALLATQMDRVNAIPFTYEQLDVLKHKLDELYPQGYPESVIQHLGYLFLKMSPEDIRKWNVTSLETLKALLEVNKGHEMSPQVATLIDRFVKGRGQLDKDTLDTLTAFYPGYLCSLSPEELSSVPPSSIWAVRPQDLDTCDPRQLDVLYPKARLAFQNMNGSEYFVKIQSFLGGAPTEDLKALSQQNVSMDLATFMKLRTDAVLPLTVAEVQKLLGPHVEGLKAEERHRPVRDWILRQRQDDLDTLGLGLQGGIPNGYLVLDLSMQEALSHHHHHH

| Binder | KD ratio in solution/immobilised human MSLN [1] | fold change of IL-2 EC50 with 20 nM sMSLN against none, NCI-H226 co-culture [2] [fold] | Emax (IL-2 pg/ml), NCI-H226 co-culture, Donor A [3] [pg/mL] | IL-2 release EC50, NCI-H226 co-culture, Donor A [3] [nM] | EC50 [4] [nM] | Emax (MFI) [4] [MFI] | EC50 [5] [nM] | Emax (MFI) [5] [MFI] | Kd [6] [nM] | Kd [7] [nM] | Kd [8] [nM] | ratio of KD in solution/immobilised [9] | Kd [10] [nM] | Kd [11] [nM] | IL-2 release EC50, NCI-H226 co-culture, +2 nM sMSLN [12] [nM] | IL-2 release EC50, NCI-H226 co-culture, +20 nM sMSLN [12] [nM] | IL-2 release EC50, NCI-H226 co-culture, no sMSLN [12] [nM] |
| --- | --- | --- | --- | --- | --- | --- | --- | --- | --- | --- | --- | --- | --- | --- | --- | --- | --- |
| B1 | 7 | 6.6 | 2110 | 0.05 | 0.613 | 801000 | 2.31 | 686000 | 0.78 | 1.06 | 5.84 | – | – | – | – | – | – |
| B2 | – | – | – | – | – | – | – | – | – | – | – | 2.8 | 19.8 | 55.9 | – | – | – |
| B3 | 0.7 | > 4 | – | – | – | – | – | – | 10.7 | – | 7.6 | 0.7 | 10.7 | 7.6 | 0.13 | 0.684 | 0.122 |
| B4 | 1.2 | > 4 | – | – | – | – | – | – | 6 | – | 7.4 | 1.2 | 6 | 7.4 | 0.0616 | 0.366 | 0.0791 |
